# Molecular target: SARS-CoV-2 spike HexaPro protein (SARS-CoV-2)
# Test: SPR
Substance,Kd [pM],koff [s⁻¹],kon [M⁻¹ s⁻¹]
"T3A (collagen XVIII trimerization domain, 3-residue G/S linker, ACE2 18-615) (from UniProt P39060;Q9BYF1)",370,–,–
"T5A (collagen XVIII trimerization domain, 5-residue G/S linker, ACE2 18-615) (from UniProt P39060;Q9BYF1)",690,–,–
"ACE2 monomer (human extracellular ACE2 domain, residues 18-615, cut from ACE2-TEV-Fc) (from UniProt Q9BYF1 18-615) (domain or fragment)",49000,0.0073,150000
"T1A (collagen XVIII trimerization domain, 1-residue G/S linker, ACE2 18-615) (from UniProt P39060;Q9BYF1)",100,–,–

# From PMC12501226
